Measurements: article PMC11469336

Biological target: ribosomes (crude ribosome pellet)
Assay: co-sedimentation

half-time of dissociation after harringtonine (in wild-type cells): 15 min
half-time of dissociation after puromycin (in wild-type cells): 1 min
Substance: trimeric SEC61 complex (from UniProt P61619 1-476; P60468 1-96; P60059 1-68)
